Molecular target: α3 subunit isoform of Na, K-ATPase (human) (UniProt P13637)
Assay: Western blot of control lysate, antibody at 1:2000, chemiluminescence, band density by Alpha DigiDoc 1000

Row | Average density | Substance
1 | 45200 | α3 monoclonal antibody from Affinity Bioreagents (Golden, Colo.)
2 | 41100 | α3 monoclonal antibody from Novus (Littleton, Colo.)
3 | 44600 | α3 monoclonal antibody from Sigma (St Louis, Mo.)

— patent US20100317541A1
